Drawing on patent US20210403541A1, this text covers EC50 (read off the curve) for one molecule.

The target of this test is PD17(p)PS413 (24AWF) (human). The test is described as follows: peptide-coated ELISA (1 µg/ml peptide 24AWF coat, anti-human IgG-HRP, ABTS, OD405).

B1: V5-AFM-hIgG4-S228P (antibody, V domains shown)
VH: EVQLVESGGGLVQPGGSLRLSCAASGFTFSSFALNWVRQAPGKGLEWVGHIRSKTNNYVTFYAASVKGRFTVSRDDSQNTAYLQMNSLKTEDTATYYCVRRGPRDSWFGYWGQGTLVTVSS
VL: DIVMTQSPLSLPVTLGEPASISCRSSQKIVHRNANTYLEWYLQKPGQSPQLLIYTVSNRFSGVPDRFSGSGSGTDFTLKISRVEAEDLGVYYCFQGSYLPLTFGGGTKVEIK
In turn, B1 showed an EC50 (read off the curve) of 0.05 µg/mL.
